In patent US20040123349A1 (published 2004):
One block for each molecule: values may come before it.

How the values were obtained:
MBP-SINAT5 = tested on: T1, MBP-SINAT5
T1 sequence: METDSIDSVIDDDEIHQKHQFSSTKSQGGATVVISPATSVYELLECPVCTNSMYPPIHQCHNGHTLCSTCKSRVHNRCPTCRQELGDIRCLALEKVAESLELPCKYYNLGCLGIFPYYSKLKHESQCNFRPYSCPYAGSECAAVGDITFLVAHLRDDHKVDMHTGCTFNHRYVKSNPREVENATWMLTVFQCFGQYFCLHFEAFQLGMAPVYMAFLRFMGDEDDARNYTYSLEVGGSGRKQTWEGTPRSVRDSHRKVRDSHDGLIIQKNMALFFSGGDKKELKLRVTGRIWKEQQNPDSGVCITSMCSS

Myc-NAC1, Q84TE6 = target: T2, Myc-NAC1, Q84TE6
T2 chain: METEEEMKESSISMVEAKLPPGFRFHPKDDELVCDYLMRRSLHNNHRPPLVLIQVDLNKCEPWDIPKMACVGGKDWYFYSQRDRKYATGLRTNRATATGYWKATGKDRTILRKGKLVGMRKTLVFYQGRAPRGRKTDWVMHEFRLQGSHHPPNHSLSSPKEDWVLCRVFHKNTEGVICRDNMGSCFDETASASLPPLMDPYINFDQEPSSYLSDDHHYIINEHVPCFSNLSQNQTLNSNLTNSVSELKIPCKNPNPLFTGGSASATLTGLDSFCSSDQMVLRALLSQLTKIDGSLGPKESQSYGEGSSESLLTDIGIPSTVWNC

Myc-NAC1 = target: T3, Myc-NAC1 (Arabidopsis, UniProt Q84TE6 1-324); assay: immunoprecipitation with anti-Myc from roots of double transgenic plants, Western blot with anti-SINAT5
T3 construct: Product of the 35S-6xMyc-NAC1 transgene in Arabidopsis thaliana; immunoprecipitated with anti-Myc antibody; also called 6xMyc-NAC1; Myc-tagged NAC1; not shown: 6xMyc tag
T3 sequence (looked up): T2 chain
Method: Western and Northern blot analyses. Antibody to SINAT5 was raised in rabbits using as an antigen the synthetic […] peptide […] (SEQ ID NO:5) corresponding to amino acid residues 3 to 18 of SINAT5 polypeptide (SEQ ID NO:1). Antibodies to c-Myc (SC40 and SC40-AC) and actin (SC1616) from Santa Cruz Biotechnology were used for immunoprecipitation and/or Western blotting. Each lane contained 10 or 20 μg protein. RNA extraction was performed by RNeasyR Plant Mini kit (Qiagene). Northern blot analysis was described previously²⁰, using as probes a NAC1 cDNA fragment encoding the NAC1 C-terminal region (amino acid 200 to 324) and a SINAT5-specific EcoRI-NdeI fragment. The 18S rRNA was used as a loading control. Each lane contained 10 μg RNA.
SINAT5 affect on expression of NAC1 in roots. Referring now to FIG. 4, there is shown the relationship between SINAT5 and NAC1 expression levels in transgenic plants. […] Root cultures from a myc-NAC1 transgenic line were treated with 50 μM of proteasome inhibitor MG 132 (+) or DMSO (−) for 3 hr. Protein extracts were processed for Western blot analysis. […] Myc-tagged proteins from roots of double transgenic plants were immunoprecipitated with antibodies specific for Myc and processed for Western blot analysis with antibodies specific for SINAT5. […] Total RNAs from the same transgenic lines were analyzed by Northern blot. […]

Molecule: MBP-SINAT5 (C49S) mutant
self-ubiquitylation activity (E3 activity) of WT SINAT5, in vitro ubiquitylation assay (MBP-SINAT5): the C49S mutant protein was able to inhibit the self-ubiquitylation activity of the WT SINAT5 when present at a 5-10 fold excess

binding result (Myc-NAC1): binds
B1: SINAT5 (wildtype) (enzyme)
chain: T1 sequence
notes: GenBank AF480944 is printed for the gene; also called WT SINAT5; SINA of Arabidopsis thaliana 5
in vitro ubiquitylation of myc-NAC1 immunopurified from transgenic plants (Western blot) (Myc-NAC1, Q84TE6): myc-NAC1 can be ubiquitylated by SINAT5 and this reaction is clearly dependent on E1, E2, and SINAT5 as an E3 ligase
